Series [1] has as its target T1, PfPDC/POR (Pyrococcus furiosus, UniProt Q51804+Q51805).
T1 construct: gene porA; native, purified anaerobically from P. furiosus cells; no tag; dimer of heterotetramers, about 260 kDa; with Pyruvate synthase subunit PorD; Pyruvate/ketoisovalerate oxidoreductases common subunit gamma
The experiment in a line: POR activity, pyruvate- and CoA-dependent methyl viologen reduction. The settings on record: POR reaction; 80°C, pH 8.4, anaerobic; 100 μM CoASH, 5 mM pyruvate. It counts as biochemical.

Series [2] has as its target T2, TgPDC/POR (Thermococcus guaymasensis, UniProt W8CQB2+W8CQR1).
T2 construct: gene porA; native, purified anaerobically from T. guaymasensis cells; no tag; dimer of heterotetramers, 258 kDa by gel filtration; with Pyruvate synthase subunit PorD; Pyruvate/ketoisovalerate oxidoreductases common subunit gamma
The experiment in a line: PDC activity with desulfo-CoA substituted for CoA. It counts as biochemical. The settings on record: PDC reaction; 80°C, anaerobic.

Series [3] deals with T1, PfPDC/POR. Kind of series: PDC activity with desulfo-CoA substituted for CoA. The format is biochemical. The settings on record: PDC reaction; 80°C, anaerobic.
For series [4], the target named is T2, TgPDC/POR. Kind of series: POR activity. It counts as biochemical. The settings on record: POR reaction; concentration not given.
Series [5] addresses bifunctional pyruvate decarboxylase/pyruvate ferredoxin oxidoreductase from Thermococcus guaymasensis, heterotetramer of PorA, PorB, PorD and Por/VorG (Thermococcus guaymasensis (endogenous in DSM 11113)) (UniProt W8CQB2). Kind of series: SEC; native enzyme purified from T. guaymasensis (about 1 mg) on HiLoad Superdex-200 in buffer E (50 mM Tris pH 7.8, 5% glycerol, 100 mM KCl, 2 mM DTT, 2 mM SDT), 2.5 mL/min, calibrated with protein standards; SDS-PAGE of the enzyme after the column; apparent Mr 258,000. In general terms: In gel filtration, larger molecules generally elute earlier.

Substrate in series [6]: CC(=O)C(=O)O
Kind of series: PDC activity, acetaldehyde as DNPH hydrazone by RP-HPLC. It counts as biochemical, Thermococcus guaymasensis. The settings on record: PDC (nonoxidative decarboxylation) reaction, 1 mM CoA, 0.1 mM TPP, Mg2+, optimal pH (9.5), 80°C, anaerobic. From the text: PDC activity, acetaldehyde as DNPH hydrazone by RP-HPLC on TgPDC/POR

Substrate in series [7]: CC(=O)C(=O)O
Kind of series: purified protein. The format is biochemical, Thermococcus guaymasensis. The settings on record: POR (oxidative decarboxylation) reaction, 0.1 mM CoA, 1 mM MV, 0.4 mM TPP, Mg2+, pH 8.4 (optimal pH), 80°C, anaerobic.

Series [8] deals with the molecule itself. The experiment in a line: SEC; native enzyme from P. furiosus; HiLoad Superdex-200 in buffer E as a step of the purification; native molecular weight of approximately 260 kDa told in the discussion, how it was estimated is not told for this enzyme.

T2 sequence (W8CR61 1-105 partner, one chain of several): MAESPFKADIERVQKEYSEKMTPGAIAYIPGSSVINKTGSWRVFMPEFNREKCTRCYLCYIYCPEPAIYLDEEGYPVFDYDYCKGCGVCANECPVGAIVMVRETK
T2 sequence (W8CQB1 1-185 partner, one chain of several): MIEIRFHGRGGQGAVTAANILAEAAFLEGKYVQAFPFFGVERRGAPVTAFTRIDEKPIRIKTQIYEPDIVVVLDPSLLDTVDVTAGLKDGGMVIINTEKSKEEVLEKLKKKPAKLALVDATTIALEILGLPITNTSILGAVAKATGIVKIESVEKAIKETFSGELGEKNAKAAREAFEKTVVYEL

`CC(C)(COP(=O)(O)OP(=O)(O)OC[C@H]1O[C@@H](n2cnc3c(N)ncnc32)[C@H](O)[C@@H]1OP(=O)(O)O)[C@@H](O)C(=O)NCCC(=O)NCCS` [coenzyme A]: the “POR activity, pyruvate- and CoA-dependent methyl viologen reduction” value in series [1] was “The pyruvate- and coenzyme A-dependent reduction of the methyl viologen was measured for POR activities”.

With `CCNC(=O)CCNC(=O)[C@H](O)C(C)(C)COP(=O)(O)OP(=O)(O)OC[C@H]1O[C@@H](n2cnc3c(N)ncnc32)[C@H](O)[C@@H]1OP(=O)(O)O` [desulfo-CoA], the figures for the “% of activity with CoA” value in series [2] and in series [3] were ~ 75% and ~ 80%, respectively. The completely inhibitory entry in series [4] is listed as “desulfo-CoA, an analogue of CoA, was completely inhibitory for the oxidation (POR) reaction”.

Consider “bifunctional pyruvate decarboxylase/pyruvate ferredoxin oxidoreductase from Thermococcus guaymasensis, heterotetramer of PorA, PorB, PorD and Por/VorG (from UniProt W8CQB2 1-331; W8CR61 1-105) (complex)”, for which the stoichiometry N in series [5] was found to be 2.

B1: TgPDC/POR (Thermococcus guaymasensis) (protein)
chain 1: MPIRTVMKANEAAAWAAKLAKPKVIAAFPITPSTLVPEKISEFVANGELDAEFIKVESEHSAISACVGASAAGVRTFTATASQGLALMHEVLFIAAGMRLPIVMAIGNRSLSAPINIWNDWQDSISERDTGWLQFYAENNQEALDLILIAYKVAEDERVLLPAMVGFDAFILTHTVEPVEIPDQELVDEFLGEYEPKHAYLASARPLTQGTLAFPAHYMEARYTVWQANENAKKVIDEVFAEFEKRFGRKYQKVEEYRTDDAEIIFVTMGSLAGTVKEYVDHLREKGIKAGAAKLTVYRPFPIEEVRELAKKAKVLALLEKNVTFSVGGALFQDFSRALINQEEKPKIVDFILGLGGRDVTFKDLDEALAIAQKALNGEKVDEVNWIGLRKEIL
chain 2: MAVRKPPITTREYWAPGHAACAGCGCAIALKLATKAFSEAMEEKYGDPNAFAIAQATGCMEVVSAVFPYTAWKVPWVHVAFENAAAAASGVEAAWKKLGRKGKILAIGGDGGTADIGMQALSGMLERRHNVVYLMYDNEAYMNTGIQRSSSTPYGAWTTTSPPGKYSIGEDKPKKWVALIAAAHQVPYVATASIGNPFDFVRKMKKAAKVDGPAFVQVHCTCPTGWKSPLEKGVEIARLAIETGVWPLFEIENGDFHNIKIQPPGGGAKVTREGGRIVAIEFKKPIEEYLKLQGRFKHLFKQPEAIDVMREQIKAMWKVLGVDVTLPKPEE
notes: native, purified anaerobically from T. guaymasensis cells; no tag; dimer of heterotetramers, 258 kDa by gel filtration; with Pyruvate synthase subunit PorD; Pyruvate/ketoisovalerate oxidoreductases common subunit gamma
As for B1, in series [6], the Km came out at 250 ± 50 µM and the Vmax was 3.8 µmol/min/mg. Besides, in series [7], the Km is 530 ± 30 µM and the Vmax was determined as 18 µmol/min/mg.

B2: bifunctional pyruvate decarboxylase/pyruvate ferredoxin oxidoreductase from Pyrococcus furiosus, heterotetramer (complex)
chain 1: MPIRKVMKANEAAAWAAKLAKPKVIAAFPITPSTLIPEKISEFVANGELDAEFIKVESEHSAISACVGAAAAGVRTFTATASQGLALMHEILFIAAGMRLPIVMAIGNRALSAPINIWNDWQDTISQRDTGWMQFYAENNQEALDLILIAYKVAEDERVLLPAMVGFDAFILTHTVEPVEIPDQEVVDEFLGEYEPKHAYIDPARPITQGSLAFPAHYMESRYTVWEAMERAKKVIDEAFAEFEKKFGRKYQKIEEYKTEDADIIFVTMGSLAGTLKEWIDKKREEGYKVGAAKITVYRPFPVEEIRELAKKAKVLAFLEKNITIGLYGAVFTDASAALINESEKPLMVDFIVGLGGRDVTFNQLDEALEIAEKALKEGKVENPINWIGLRWELVK
chain 2: MAVRKPPITTREYWAPGHAACAGCGCATALRLATKALSEAMEEKYGDPNAFAIAHATGCMEVVSAVFPYTAWKAPWIHVAFENAAAVASGIEAAWKKLGRKGKILAIGGDGGTADIGLQALSGMLERWHNVLYLMYDNEAYMNTGIQRSSSTPYGAWTTTSPPGKYSVGEDKPKKWVALIAAAHQIPYVATASIGNPLDFVRKIKKAGKIDGPAFVQVLCTCPTGWRSPLEKGVEIARLAIETGIWPLFEIENGDIWNIKIQPPGGGAKVYKEGNRVVRIEFKKPIEEYLKLQGRFKHLFKRPEAIEELRNQVKAMWKVLGVEAILPRPEE
chain 3: MIEVRFHGRGGQGAVTAANILAEAAFLEGKYVQAFPFFGVERRGAPVTAFTRIDNKPIRIKTQIYEPDVVVVLDPSLLDAVDVTAGLKDEGIVIVNTEKSKEEVLEKLKKKPKKLAIVDATTIALEILGLPITNTAILGAVAKATGLVKIESIEEAIKDTFSGELGEKNARAAREAYEKTEVFEL
chain 4: MAESPFKADIERAQKELSEKMTPGAIVYIPGSSVINKTGSWRVFKPEFNRDKCVRCYLCYIYCPEPAIYLDEEGYPVFDYDYCKGCGICANECPTKAIEMVREVK
notes: alpha subunit (PorA) of pyruvate ferredoxin oxidoreductase, Pyrococcus furiosus; beta subunit (PorB) of pyruvate ferredoxin oxidoreductase, Pyrococcus furiosus; gamma subunit (Por/VorG) of pyruvate ferredoxin oxidoreductase, Pyrococcus furiosus; delta subunit (PorD) of pyruvate ferredoxin oxidoreductase, Pyrococcus furiosus; One heterotetramer (one copy of each subunit); the native enzyme is …
Consider B2, for which the “stoichiometry N” value in series [8] is 2.

One may read the stoichiometry N as a count of units in the complex or per binding partner. Broadly, the Km is the concentration of substrate that gives half-maximal velocity. A word on the Vmax: it is the top rate of the reaction or transport when substrate is in excess.
